Earlier results, collected in article PMC3625564.

Biological target: Endocan (Homo sapiens) (UniProt Q9NQ30)
Assay: biosensor

UniProt Q9NQ30, sequence (Q9NQ30 20-184): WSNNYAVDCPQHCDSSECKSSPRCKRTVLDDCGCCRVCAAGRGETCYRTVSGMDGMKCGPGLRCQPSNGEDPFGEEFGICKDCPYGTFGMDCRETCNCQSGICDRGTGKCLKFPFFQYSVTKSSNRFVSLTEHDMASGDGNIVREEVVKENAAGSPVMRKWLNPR

- Kd: 4.5 nM
Substance: HGF (from UniProt P14210)
